Test results taken from patent US8703913B2, “Sensor” (Medical Research Council, priority 2008, dated 2014).
Positions count from the first letter of the chain named. In names and notes the source's numbering stands.

B1: T175N: MDCC-ParM (His6/I27C/T175N/C287A) (conjugate, UniProt P11904 1-320, looked up, variant I27C T175N C287A)
Plasmid segregation protein …: MLVFIDDGSTNIKLQWQESDGTIKQHCSPNSFKREWAVSFGDKKVFNYTLNGEQYSFDPISPDAVVTTNIAWQYSDVNVVAVHHALLTSGLPVSEVDIVCTLPLTEYYDRNNQPNTENIERKKANFRKKITLNGGDTFTIKDVKVMPESIPAGYEVLQELDELDSLLIIDLGGTNLDISQVMGKLSGISKIYGDSSLGVSLVTSAVKDALSLARTKGSSYLADDIIIHRKDNNYLKQRINDENKISIVTEAMNEALRKLEQRVLNTLNEFSGYTHVMVIGGGAELIADAVKKHTQIRDERFFKTNNSQYDLVNGMYLIGN
modifications: MDCC label; His6 tag
B2: T174A T175A: MDCC-ParM (His6/I27C/T174A/T175A/C287A) (conjugate, UniProt P11904 1-320, looked up, variant I27C T174A T175A C287A)
Plasmid segregation protein …: B1 Plasmid segregation protein … with T174A, N175A
modifications: MDCC label; His6 tag
B3: T175L: MDCC-ParM (His6/I27C/T175L/C287A) (conjugate, UniProt P11904 1-320, looked up, variant I27C T175L C287A)
Plasmid segregation protein …: B1 Plasmid segregation protein … with N175L
modifications: MDCC label; His6 tag
B4: T175H: MDCC-ParM (His6/I27C/T175H/C287A) (conjugate, UniProt P11904 1-320, looked up, variant I27C T175H C287A)
Plasmid segregation protein …: B1 Plasmid segregation protein … with N175H
modifications: MDCC label; His6 tag
B5: T175F: MDCC-ParM (His6/I27C/T175F/C287A) (conjugate, UniProt P11904 1-320, looked up, variant I27C T175F C287A)
Plasmid segregation protein …: B1 Plasmid segregation protein … with N175F
modifications: MDCC label; His6 tag
B6: S9A: MDCC-ParM (His6/S9A/I27C/C287A) (conjugate, UniProt P11904 1-320, looked up, variant S9A I27C C287A)
Plasmid segregation protein …: B1 Plasmid segregation protein … with S9A, N175T
modifications: MDCC label; His6 tag
B7: S9Q: MDCC-ParM (His6/S9Q/I27C/C287A) (conjugate, UniProt P11904 1-320, looked up, variant S9Q I27C C287A)
Plasmid segregation protein …: B1 Plasmid segregation protein … with S9Q, N175T
modifications: MDCC label; His6 tag
B8: T174A: MDCC-ParM (His6/I27C/T174A/C287A) (conjugate, UniProt P11904 1-320, looked up, variant I27C T174A C287A)
Plasmid segregation protein …: B1 Plasmid segregation protein … with T174A, N175T
modifications: MDCC label; His6 tag
B9: T175A: MDCC-ParM (His6/I27C/T175A/C287A) (conjugate, UniProt P11904 1-320, looked up, variant I27C T175A C287A)
Plasmid segregation protein …: B1 Plasmid segregation protein … with N175A
modifications: MDCC label; His6 tag
B10: E148R: MDCC-ParM (His6/I27C/E148R/C287A) (conjugate, UniProt P11904 1-320, looked up, variant I27C E148R C287A)
Plasmid segregation protein …: B1 Plasmid segregation protein … with E148R, N175T
modifications: MDCC label, His6 tag
B11: IDCC-ParM (T215C): ParM T215C/C287A labeled with IDCC (conjugate, UniProt P11904 1-320, looked up, variant T215C C287A)
Plasmid segregation protein …: B1 Plasmid segregation protein … with C27I, N175T, T215C
modifications: IDCC label
B12: CPM-ParM (I27C): ParM I27C/C287A labeled with CPM (conjugate, UniProt P11904 1-320, looked up, variant I27C C287A)
Plasmid segregation protein …: B1 Plasmid segregation protein … with N175T
modifications: CPM label
B13: CPM-ParM (S204C): ParM S204C/C287A labeled with CPM (conjugate, UniProt P11904 1-320, looked up, variant S204C C287A)
Plasmid segregation protein …: B1 Plasmid segregation protein … with C27I, N175T, S204C
modifications: CPM label
B14: CPM-ParM (T215C): ParM T215C/C287A labeled with CPM (conjugate, UniProt P11904 1-320, looked up, variant T215C C287A)
Plasmid segregation protein …: B1 Plasmid segregation protein … with C27I, N175T, T215C
modifications: CPM label
B15: PcrA: DNA helicase from Bacillus stearothermophilus involved in plasmid replication (protein, UniProt P56255 1-724, looked up)
ATP-dependent DNA helicase …: MNFLSEQLLAHLNKEQQEAVRTTEGPLLIMAGAGSGKTRVLTHRIAYLMAEKHVAPWNILAITFTNKAAREMRERVQSLLGGAAEDVWISTFHSMCVRILRRDIDRIGINRNFSILDPTDQLSVMKTILKEKNIDPKKFEPRTILGTISAAKNELLPPEQFAKRASTYYEKVVSDVYQEYQQRLLRNHSLDFDDLIMTTIQLFDRVPDVLHYYQYKFQYIHIDEYQDTNRAQYTLVKKLAERFQNICAVGDADQSIYRWRGADIQNILSFERDYPNAKVILLEQNYRSTKRILQAANEVIEHNVNRKPKRIWTENPEGKPILYYEAMNEADEAQFVAGRIREAVERGERRYRDFAVLYRTNAQSRVMEEMLLKANIPYQIVGGLKFYDRKEIKDILAYLRVIANPDDDLSLLRIINVPKRGIGASTIDKLVRYAADHELSLFEALGELEMIGLGAKAAGALAAFRSQLEQWTQLQEYVSVTELVEEVLDKSGYREMLKAERTIEAQSRLENLDEFLSVTKHFENVSDDKSLIAFLTDLALISDLDELDGTEQAAEGDAVMLMTLHAAKGLEFPVVFLIGMEEGIFPHNRSLEDDDEMEEERRLAYVGITRAEEELVLTSAQMRTLFGNIQMDPPSRFLNEIPAHLLETASRRQAGASRPAVSRPQASGAVGSWKVGDRANHRKWGIGTVVSVRGGGDDQELDIAFPSPIGIKRLLAKFAPIEKV

System: not listed separately
Test: Stopped-flow kinetics of ADP binding and dissociation
Details: Table 3; ADP association, stopped-flow, 20° C.

Row | Molecule | kon [M⁻¹ s⁻¹]
1 | B1 | 640000
2 | B2 | 980000
3 | B3 | 340000

Same assay, conditions: Table 3; calculated as koff/kon

Row | Molecule | Kd [µM]
4 | B1 | 0.42
5 | B2 | 0.22
6 | B3 | 0.81

Same assay, conditions: Table 3; displacement with unlabeled ParM, 20° C.

Row | Molecule | koff [s⁻¹]
7 | B1 | 0.27
8 | B2 | 0.22
9 | B3 | 0.28

System: not listed separately
Test: Fluorescence titration of labeled ParM with ADP
Type: binding
Details: Table 2; MDCC-ParM mutants, 20° C.
Procedure: MDCC fluorescence was excited at 431 nm and detected at 474 nm, for the rhodamine-labeled proteins, excitation and emission wavelengths of 553 nm and 578 nm were used. […] The fraction of ParM bound to ADP was calculated from the fluorescence intensities.
The MDCC fluorescence was excited at 431 nm and emission was recorded at 474 nm. The equilibrium dissociation constants were determined by fitting a quadratic binding curve to the data.
(§1) The equilibrium dissociation constants were determined by fitting a quadratic binding curve to the data and are listed in Table Y. For the plot the experimental fluorescence intensities were normalized to the maximal fluorescence change obtained at saturation with ADP.
(§2) [formula] where [P] and [L] are the total concentrations of protein and ligand, respectively, Kd is the dissociation constant and Fmin and Fmax are the fluorescence intensities of the free and ligand bound protein.
(§3) Fluorescence spectra and titrations were measured in a Cary Eclipse spectrofluorimeter (Varian). Excitation and emission spectra were recorded with 5 nm slit width at emission and excitation wavelength of 576 nm and 553 nm, respectively. In titration experiments rhodamine fluorescence was measured at the same excitation/emission wavelength. Titration data were analyzed with a quadratic binding curve using the program Grafit 5.0 (7).

Row | Molecule | ADP F+ADP/F−ADP
10 | B4 | 3.2
11 | B5 | 2.5
12 | B6 | 3.1
13 | B7 | 3.2
14 | B8 | 2.9
15 | B9 | 3.3
16 | B1 | 3.4
17 | B2 | 3.3
18 | B3 | 1.9
19 | B10 | <1.1

Same assay, conditions: Table 2; fluorescence titration, 20° C.

Row | Molecule | Kd [µM]
20 | B4 | 0.4
21 | B5 | 4.7
22 | B6 | 2.5
23 | B7 | 1.66
24 | B8 | 0.39
25 | B9 | 0.37
26 | B1 | 0.6
27 | B2 | 0.33
28 | B3 | 1.57

Target: not listed separately
Test: Fluorescence titration of labeled ParM with ATP
Type: binding
Details: Table 2
Procedure: The MDCC fluorescence was excited at 431 nm and emission was recorded at 474 nm. The equilibrium dissociation constants were determined by fitting a quadratic binding curve to the data. For the plot the experimental fluorescence intensities were converted to the nucleotide bound fraction of ParM.
as §1
ADP and ATP were purchased from Sigma at the highest purity available. The purity of the nucleotides was analysed by HPLC using a Partisphere SAX column, 125×4.5 mm (Whatman). Nucleotide separation was performed isocratic with 0.3 M (NH4)2HPO4 buffer pH 4.0, 25% MeOH, and the absorbance at 260 nm was monitored.
as §2, §3

Row | Molecule | Kd ratio ATP/ADP
29 | B4 | 0.4
30 | B5 | 29
31 | B6 | 39
32 | B7 | 40
33 | B8 | 164
34 | B9 | 168
35 | B1 | 307
36 | B2 | 324
37 | B3 | 324

Same assay, conditions: Table 2; MDCC-ParM mutants, 20° C.

Row | Molecule | ATP F+ATP/F−ATP
38 | B4 | 3.9
39 | B5 | 2.5
40 | B6 | 2.9
41 | B7 | 2.8
42 | B8 | 3.1
43 | B9 | 3.3
44 | B1 | 3.2
45 | B2 | 3.2
46 | B3 | 2.3
47 | B10 | <1.1

Same assay, conditions: Table 2; highly purified ATP containing only 0.03% ADP, 20° C.

Row | Molecule | Kd [µM]
48 | B4 | 0.16
49 | B5 | 137
50 | B6 | 98
51 | B7 | 66
52 | B8 | 64
53 | B9 | 62
54 | B1 | 184
55 | B2 | 107
56 | B3 | 507

System: not listed separately
Test: Screening mutant/fluorophore combinations for a fluorescence response to ADP
Details: ParM mutant/fluorophore combination

Row | Molecule | Fluorescence change, ratio of the intensity in presence of 1 mM ADP to that in the absence of ADP
57 | B11 | 0.74
58 | B12 | 0.62
59 | B13 | 0.62
60 | B14 | 0.76

Target: PcrA helicase (Geobacillus stearothermophilus, UniProt P56255)
Test: Steady-state ATP hydrolysis by PcrA helicase monitored with the biosensor
Type: biochemical, Bacillus stearothermophilus
Details: 1 nM PcrA, 5 μM ATP, 3.8 μM dT16, 10 μM MDCC-ParM, 20° C.

Row | Molecule | initial rate of ADP generation [nM/s]
61 | B15 | 10.4

Same assay, conditions: 2 nM PcrA, 0.5 μM dT20, 5 μM MDCC-ParM, set of calibration curves

Row | Molecule | Km [µM] | kcat [s⁻¹]
62 | B15 | 1.6 | 13.7

Same assay, conditions: 2 nM PcrA, 5 μM ATP, 3.8 μM dT16, 10 μM MDCC-ParM, 20° C.

Row | Molecule | initial rate of ADP generation [nM/s]
63 | B15 | 19.9

Same assay, conditions: calibration at 15 μM total nucleotide concentration

Row | Molecule | kcat [s⁻¹]
64 | B15 | 14.0

Same assay, conditions: calibration in the absence of ATP

Row | Molecule | kcat [s⁻¹]
65 | B15 | 12.2

Same assay, conditions: measured with MDCC-ParM, 5 μM ATP, background subtracted

Row | Molecule | steady state hydrolysis activity [s⁻¹]
66 | B15 | 6.8

Same assay, conditions: measured with phosphate biosensor MDCC-PBP

Row | Molecule | Km [µM] | kcat [s⁻¹] | steady state hydrolysis activity [s⁻¹]
67 | B15 | 1.7 | 11.5 | 7.2

Same assay, conditions: single calibration used for all ATP concentrations

Row | Molecule | Michaelis-Menten constant for ATP [µM]
68 | B15 | 1.4
